Assay [1] deals with T1, caspase-9 (Homo sapiens, UniProt P55211).
T1 construct: expressed in transfected cells; host or cells: 293T cells
T1 sequence (P55211 1-315 limits assumed): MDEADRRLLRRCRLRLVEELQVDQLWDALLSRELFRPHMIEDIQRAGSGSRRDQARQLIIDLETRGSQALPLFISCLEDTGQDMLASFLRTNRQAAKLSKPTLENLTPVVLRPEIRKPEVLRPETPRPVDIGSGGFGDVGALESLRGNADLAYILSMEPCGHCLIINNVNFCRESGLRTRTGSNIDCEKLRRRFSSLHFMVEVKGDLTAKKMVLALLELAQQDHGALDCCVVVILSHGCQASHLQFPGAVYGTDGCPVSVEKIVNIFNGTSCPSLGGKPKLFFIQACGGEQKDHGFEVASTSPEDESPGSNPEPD
T1 sequence (P55211 331-416 limits assumed): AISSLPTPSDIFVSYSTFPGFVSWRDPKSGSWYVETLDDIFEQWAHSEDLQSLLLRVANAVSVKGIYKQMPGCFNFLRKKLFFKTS
Description: Caspase-9 co-immunoprecipitation in transfected 293T cells. Type of assay: cell-based. The following applies: Flag-tagged BIR domain proteins, IP anti-Flag. Here is the method: 293T cells were transiently transfected with caspase-9 and Flag-tagged BIR domain proteins or vector. After 40 h, cells were lysed in NP40 lysis buffer (120 mM Tris, 150 mM NaCl, 1% NP-40, 1 mM DTT and protease inhibitor cocktail) and lysates immunoprecipitated (IP) with anti-Flag antibody. Samples were then Western blotted with anti-caspase-9 and anti-Flag antibodies. […] When overexpressed, caspase-9 undergoes autocatalytic processing and it is the processed form that physically interacts with XIAP and ML-IAP BIR domains.

Assay [2] deals with T2, ΔCARD human caspase 9 (Homo sapiens, UniProt P55211, D305A/E304A/E306A).
T2 construct: made in house
T2 sequence (P55211 139-315 E304A/D305A/E306A limits assumed): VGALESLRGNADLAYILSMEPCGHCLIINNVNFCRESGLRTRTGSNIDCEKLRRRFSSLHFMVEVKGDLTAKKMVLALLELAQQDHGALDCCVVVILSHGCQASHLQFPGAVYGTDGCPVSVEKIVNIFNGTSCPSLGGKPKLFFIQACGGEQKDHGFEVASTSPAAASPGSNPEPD
T2 sequence (P55211 316-416 limits assumed): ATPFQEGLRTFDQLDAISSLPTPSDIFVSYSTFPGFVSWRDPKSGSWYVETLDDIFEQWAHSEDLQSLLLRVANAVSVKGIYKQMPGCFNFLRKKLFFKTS
The assay is described as follows: Determination of caspase-9 inhibitory constants (Ac-LEHD-AFC hydrolysis). Type of assay: biochemical. The following applies: 300 nM ΔCARD caspase 9, 100 μM Ac-LEHD-AFC, 37° C.; read-out: Caspase-9 inhibition Ki(app). On the procedure: ΔCARD (caspase recruitment domain) human caspase 9 (lacking the first 138 residues) with Ala substitutions at residues 304 to 306 was produced as described previously (Boatright et al., (2003) Mol Cell 11: 529–541). The third BIR of […] (residues 252–348) was also prepared as described previously (Sun et al., (2000) J Biol Chem 275(43): 33777–81).
Determination of Caspase-9 Inhibitory Constants: Recombinant ΔCARD caspase 9 (300 nM final concentration in the assay) was preactivated in salt-free caspase buffer (20 mM PIPES, 10 mM EDTA, 0.1% CHAPS and 10% (w/v) sucrose, pH 7.2) for 15 min at 37° C. Following this, a range of inhibitor concentrations were preincubated with the enzyme for 20 min at 37° C. The assay was started by the addition of Ac-LEHD-AFC (100 μM final concentration) and measured kinetically for 30 min using an fmax Fluorescence Plate Reader (Molecular Devices) at an excitation wavelength of 405 nm and an emission wavelength of 510 nm. Reaction mixtures were thermostatically controlled at 37° C. The individual Ki values for the inhibitors [I] were determined from the uninhibited substrate hydrolysis rate (vo) and the inhibited rates (vi), so that a plot of (vo/vi)−1 against [I] gives Ki(app), the equilibrium inhibition constant in the presence of substrate (Salvesen and Nagase, (1989) Proteolytic enzymes: A practical approach. R. J. Beynon and J. S. Bond. Oxford, IRL Press: 83–104).

Assay [3] relates to MCF7 cells. Description: Inhibition of doxorubicin-induced apoptosis in transfected MCF7 cells. The assay is classed as cell-based. The following applies: MCF7 cells transiently transfected, doxorubicin 0.5 μg/ml. Here is the method:
MCF7 cells were transiently transfected with the reporter plasmid pCMV-βgal and either vector control alone or BIR domain constructs. Following transfection, cells were exposed to doxorubicin (adriamycin; 0.5 μg/ml), stained with X-gal and apoptosis assessed by counting live and dead transfected cells. Percentage apoptosis represents the mean value of at least four sample points and is representative of three independent experiments.

Assay [4] concerns the target wild-type mature Smac protein. The assay is described as follows: Fluorescence polarization competition assay, mature Smac protein. The following applies: competition with 5 nM Hid-FAM probe, Ki from IC50. The assay is classed as binding, human. Here is the method:
A PCR product containing amino acids 56–239 of Smac/DIABLO (accession number SMAC_HUMAN) was cloned into the XbaI/XhoI sites of a pet21b+ (Novagen) generating a C-terminal His6 fusion. Pet21bSmac was transformed into Escherichia coli strain BL21(DE3) competent cells (Stratagene). Overnight cultures were diluted 1:100 and grown at 37° C. in LB media with 50 μg/ml carbenicillin to an A600 of 0.8 with vigorous shaking. Isopropyl-β-D-1-thiogalactopyranoside (IPTG) was added to a final concentration of 1 mM and cultures were grown overnight at 16° C. Cell pellets were resuspended in Buffer A (50 mM Tris (pH 8.0), 300 mM NaCl, 0.5 mM PMSF, 2 mM benzamidine, 5 mM β-mercaptoethanol) with 5 mM imidazole and placed on ice for 30 minutes. Cells were homogenized, microfluidized, and centrifuged at 15,000 rpm for 45 minutes. Supernatant was loaded onto a Ni-NTA agarose column (Qiagen™), washed with 10 column volumes Buffer A with 10 mM imidazole, and eluted with 10 column volumes Buffer A with 300 mM imidazole. Fractions containing Smac protein were pooled, concentrated and loaded on a Superdex™ 200 sizing column. Protein eluted over one column volume into 50 mM Tris (pH 7.6), 300 mM NaCl, 0.5 mM PMSF, 2 mM benzamidine and 5 mM DTT. Fractions containing Smac protein were pooled and dialyzed against 3 changes of buffer containing 50 mM Tris (pH 7.6), 0.5 mM PMSF, 2 mM benzamidine and 5 mM DTT. The dialyzed sample was loaded onto a Q-Sepharose™ FF column (Pharmacia) and eluted over a 10 column volume gradient from zero to 1 M NaCl in buffer 50 mM Tris (pH 7.6), 0.5 mM PMSF, 2 mM benzamidine and 5 mM DTT. The cDNA encoding full-length ML-IAP plus a N-terminal His6-tag was cloned into the pET15b(+) expression vector (Novagen). ML-IAP was expressed in E. coli strain BL21(DE3)pLysS. […] The protein concentration of purified proteins was determined from the absorbance at 280 nm based on the molar absorption coefficients calculated from the Edelhoch relationship (Edelhoch, (1967) Biochemistry 6: 1948–1954).
(§1) Samples were read after a 10-minute incubation. Fluorescence polarization values were plotted as a function of the antagonist concentration, and the IC50 values were obtained by fitting the data to a 4-parameter equation using Kaleidagraph™ software (Synergy software; Reading, Pa.). Inhibition constants (Ki) for the antagonists were determined from the IC50 values (Keating et al., (2000) Putting the pieces together: contribution of fluorescence polarization assays to small-molecule lead optimization. Proceedings of SPIE: In-Vitro Diagnostic Instrumentation.).
(§2) The binding affinity of the Hid-FAM probe for each of the BIR domains was determined directly using a fluorescence polarization-based assay and the result is shown graphically in FIG. 8.
Background: Fluorescence polarisation rises when a labelled molecule tumbles more slowly, as on binding a larger partner.

Assay [5] concerns the target Hid-FAM (5-carboxyflourescein-conjugated AVPFAK(5-FAM)K). The assay is described as follows: Fluorescence polarization affinity measurement with Hid-FAM probe. The assay is classed as binding. The note with it: 5 nM Hid-FAM, apparent Kd from EC50. Here is the method: Polarization experiments were performed on an Analyst™ HT 96-384 (Molecular Devices Corp.). […] The reactions were read after an incubation time of 10 minutes at room temperature with standard cut-off filters for the fluorescein fluorophore (λex=485 nm; λem=530 nm) in 96-well black HE96 plates (Molecular Devices Corp.). Fluorescence polarization values were plotted as a function of the protein concentration, and the EC50 values were obtained by fitting the data to a 4-parameter equation using Kaleidagraph™ software (Synergy software, Reading, Pa.). The apparent Kd values were determined from the EC50 values.
as §2

Assay [6] concerns the target Smac-9mer peptide (AVPIAQKSE). The assay is described as follows: Fluorescence polarization competition assay, Smac-9mer peptide. The assay is classed as binding. The note with it: competition with 5 nM Hid-FAM probe, Ki from IC50. Here is the method:
as §1

We go through 1 molecule from patent US7067274B2, “Compositions and methods for the screening pro-apoptotic compounds” (Genentech, Inc., priority 2003, dated 2006).

B1: ML-IAP-BIR: wild-type ML-IAP BIR domain construct, amino acids 63–179 of accession number BIR7_HUMAN (protein)
chain: TEEEEEEGAGATLSRGPAFPGMGSEELRLASFYDWPLTAEVPPELLAAAGFFHTGHQDKVRCFFCYGGLQSWKRGDDPWTEHAKWFPSCQFLLRSKGRDFVHSVQETHSQLLGSWDP
modifications: left off: small tags and cut ends
Take B1: the “caspase-9 binding efficiency (co-immunoprecipitation, Western blot)” value in assay [1] is listed as “co-imnunoprecipitates processed caspase-9”. In addition, the Ki in assay [2] is 3200 nM; in assay [4], 26 nM; in assay [6] it was 200 nM. For the same molecule, in assay [3], the “inhibition of doxorubicin-induced apoptosis” value is “confers resistance”. For the same molecule, in assay [5], the Kd turned out to be 21 nM.
